These are literature values, as cited in article PMC9927262.

Data set [1] concerns the target Spike RBD RBD (SARS-CoV-2) (UniProt P0DTC2).
For data set [2] the target is unchanged. This is another data set of the same source.

Like-named read-outs stand apart in the source and are kept apart here.

On to bamlanivimab, for which, in data set [1], the Kd is 3.5 nM.
Take etesevimab: in data set [2], the dissociation constant Kd is 4.1 nM.
